In patent US7432093B2, “Soluble, functional apoptotic protease-activating factor 1 fragments” (The Trustees of Princeton University, priority 2004, dated 2008):
Numbering of substitutions follows the chain as printed. Names and notes keep the numbering of the source.

B1: 1-589: recombinant Apaf-1 fragment, residues 1-589 of SEQ ID NO: 1 (protein, listed as Homo sapiens)
chain: MDAKARNCLLQHREALEKDIKTSYIMDHMISDGFLTISEEEKVRNEPTQQQRAAMLIKMILKKDNDSYVSFYNALLHEGYKDLAALLHDGIPVVSSSSGKDSVSGITSYVRTVLCEGGVPQRPVVFVTRKKLVNAIQQKLSKLKGEPGWVTIHGMAGCGKSVLAAEAVRDHSLLEGCFPGGVHWVSVGKQDKSGLLMKLQNLCTRLDQDESFSQRLPLNIEEAKDRLRILMLRKHPRSLLILDDVWDSWVLKAFDSQCQILLTTRDKSVTDSVMGPKYVVPVESSLGKEKGLEILSLFVNMKKADLPEQAHSIIKECKGSPLVVSLIGALLRDFPNRWEYYLKQLQNKQFKRIRKSSSYDYEALDEAMSISVEMLREDIKDYYTDLSILQKDVKVPTKVLCILWDMETEEVEDILQEFVNKSLLFCDRNGKSFRYYLHDLQVDFLTEKNCSQLQDLHKKIITQFQRYHQPHTLSPDQEDCMYWYNFLAYHMASAKMHKELCALMFSLDWIKAKTELVGPAHLIHEFVEYRHILDEKDCAVSENFQEFLSLNGHLLGRQPFPNIVQLGLCEPETSEVYQQAKLQAKQEVD
B2: 1-286: recombinant Apaf-1 fragment, residues 1-286 of SEQ ID NO: 1 (protein, listed as Homo sapiens)
chain: MDAKARNCLLQHREALEKDIKTSYIMDHMISDGFLTISEEEKVRNEPTQQQRAAMLIKMILKKDNDSYVSFYNALLHEGYKDLAALLHDGIPVVSSSSGKDSVSGITSYVRTVLCEGGVPQRPVVFVTRKKLVNAIQQKLSKLKGEPGWVTIHGMAGCGKSVLAAEAVRDHSLLEGCFPGGVHWVSVGKQDKSGLLMKLQNLCTRLDQDESFSQRLPLNIEEAKDRLRILMLRKHPRSLLILDDVWDSWVLKAFDSQCQILLTTRDKSVTDSVMGPKYVVPVESSL
B3: 1-349: recombinant Apaf-1 fragment, residues 1-349 of SEQ ID NO: 1 (protein, listed as Homo sapiens)
chain: MDAKARNCLLQHREALEKDIKTSYIMDHMISDGFLTISEEEKVRNEPTQQQRAAMLIKMILKKDNDSYVSFYNALLHEGYKDLAALLHDGIPVVSSSSGKDSVSGITSYVRTVLCEGGVPQRPVVFVTRKKLVNAIQQKLSKLKGEPGWVTIHGMAGCGKSVLAAEAVRDHSLLEGCFPGGVHWVSVGKQDKSGLLMKLQNLCTRLDQDESFSQRLPLNIEEAKDRLRILMLRKHPRSLLILDDVWDSWVLKAFDSQCQILLTTRDKSVTDSVMGPKYVVPVESSLGKEKGLEILSLFVNMKKADLPEQAHSIIKECKGSPLVVSLIGALLRDFPNRWEYYLKQLQNKQ
B4: 1-591 K160R: Apaf-1 fragment 1-591 of SEQ ID NO: 1 with K160R substitution (protein, listed as Homo sapiens)
chain: MDAKARNCLLQHREALEKDIKTSYIMDHMISDGFLTISEEEKVRNEPTQQQRAAMLIKMILKKDNDSYVSFYNALLHEGYKDLAALLHDGIPVVSSSSGKDSVSGITSYVRTVLCEGGVPQRPVVFVTRKKLVNAIQQKLSKLKGEPGWVTIHGMAGCGRSVLAAEAVRDHSLLEGCFPGGVHWVSVGKQDKSGLLMKLQNLCTRLDQDESFSQRLPLNIEEAKDRLRILMLRKHPRSLLILDDVWDSWVLKAFDSQCQILLTTRDKSVTDSVMGPKYVVPVESSLGKEKGLEILSLFVNMKKADLPEQAHSIIKECKGSPLVVSLIGALLRDFPNRWEYYLKQLQNKQFKRIRKSSSYDYEALDEAMSISVEMLREDIKDYYTDLSILQKDVKVPTKVLCILWDMETEEVEDILQEFVNKSLLFCDRNGKSFRYYLHDLQVDFLTEKNCSQLQDLHKKIITQFQRYHQPHTLSPDQEDCMYWYNFLAYHMASAKMHKELCALMFSLDWIKAKTELVGPAHLIHEFVEYRHILDEKDCAVSENFQEFLSLNGHLLGRQPFPNIVQLGLCEPETSEVYQQAKLQAKQEVDNG
B5: C115S: point mutation C115S made in SEQ ID NO: 1 (protein, listed as Homo sapiens)
chain: B4 chain with C115S, R160K
B6: 1-567: recombinant Apaf-1 fragment, residues 1-567 of SEQ ID NO: 1 (protein, listed as Homo sapiens)
chain: MDAKARNCLLQHREALEKDIKTSYIMDHMISDGFLTISEEEKVRNEPTQQQRAAMLIKMILKKDNDSYVSFYNALLHEGYKDLAALLHDGIPVVSSSSGKDSVSGITSYVRTVLCEGGVPQRPVVFVTRKKLVNAIQQKLSKLKGEPGWVTIHGMAGCGKSVLAAEAVRDHSLLEGCFPGGVHWVSVGKQDKSGLLMKLQNLCTRLDQDESFSQRLPLNIEEAKDRLRILMLRKHPRSLLILDDVWDSWVLKAFDSQCQILLTTRDKSVTDSVMGPKYVVPVESSLGKEKGLEILSLFVNMKKADLPEQAHSIIKECKGSPLVVSLIGALLRDFPNRWEYYLKQLQNKQFKRIRKSSSYDYEALDEAMSISVEMLREDIKDYYTDLSILQKDVKVPTKVLCILWDMETEEVEDILQEFVNKSLLFCDRNGKSFRYYLHDLQVDFLTEKNCSQLQDLHKKIITQFQRYHQPHTLSPDQEDCMYWYNFLAYHMASAKMHKELCALMFSLDWIKAKTELVGPAHLIHEFVEYRHILDEKDCAVSENFQEFLSLNGHLLGRQPFPNIVQLG
B7: 1-554: recombinant Apaf-1 fragment, residues 1-554 of SEQ ID NO: 1 (protein, listed as Homo sapiens)
chain: MDAKARNCLLQHREALEKDIKTSYIMDHMISDGFLTISEEEKVRNEPTQQQRAAMLIKMILKKDNDSYVSFYNALLHEGYKDLAALLHDGIPVVSSSSGKDSVSGITSYVRTVLCEGGVPQRPVVFVTRKKLVNAIQQKLSKLKGEPGWVTIHGMAGCGKSVLAAEAVRDHSLLEGCFPGGVHWVSVGKQDKSGLLMKLQNLCTRLDQDESFSQRLPLNIEEAKDRLRILMLRKHPRSLLILDDVWDSWVLKAFDSQCQILLTTRDKSVTDSVMGPKYVVPVESSLGKEKGLEILSLFVNMKKADLPEQAHSIIKECKGSPLVVSLIGALLRDFPNRWEYYLKQLQNKQFKRIRKSSSYDYEALDEAMSISVEMLREDIKDYYTDLSILQKDVKVPTKVLCILWDMETEEVEDILQEFVNKSLLFCDRNGKSFRYYLHDLQVDFLTEKNCSQLQDLHKKIITQFQRYHQPHTLSPDQEDCMYWYNFLAYHMASAKMHKELCALMFSLDWIKAKTELVGPAHLIHEFVEYRHILDEKDCAVSENFQEFLSLNGHL
B8: 1-570: recombinant Apaf-1 fragment, residues 1-570 of SEQ ID NO: 1 (protein, listed as Homo sapiens)
chain: MDAKARNCLLQHREALEKDIKTSYIMDHMISDGFLTISEEEKVRNEPTQQQRAAMLIKMILKKDNDSYVSFYNALLHEGYKDLAALLHDGIPVVSSSSGKDSVSGITSYVRTVLCEGGVPQRPVVFVTRKKLVNAIQQKLSKLKGEPGWVTIHGMAGCGKSVLAAEAVRDHSLLEGCFPGGVHWVSVGKQDKSGLLMKLQNLCTRLDQDESFSQRLPLNIEEAKDRLRILMLRKHPRSLLILDDVWDSWVLKAFDSQCQILLTTRDKSVTDSVMGPKYVVPVESSLGKEKGLEILSLFVNMKKADLPEQAHSIIKECKGSPLVVSLIGALLRDFPNRWEYYLKQLQNKQFKRIRKSSSYDYEALDEAMSISVEMLREDIKDYYTDLSILQKDVKVPTKVLCILWDMETEEVEDILQEFVNKSLLFCDRNGKSFRYYLHDLQVDFLTEKNCSQLQDLHKKIITQFQRYHQPHTLSPDQEDCMYWYNFLAYHMASAKMHKELCALMFSLDWIKAKTELVGPAHLIHEFVEYRHILDEKDCAVSENFQEFLSLNGHLLGRQPFPNIVQLGLCE
B9: 1-611: recombinant Apaf-1 protein, residues 1-611 (protein, UniProt O14727 1-611, looked up, fragment)
chain: MDAKARNCLLQHREALEKDIKTSYIMDHMISDGFLTISEEEKVRNEPTQQQRAAMLIKMILKKDNDSYVSFYNALLHEGYKDLAALLHDGIPVVSSSSGKDSVSGITSYVRTVLCEGGVPQRPVVFVTRKKLVNAIQQKLSKLKGEPGWVTIHGMAGCGKSVLAAEAVRDHSLLEGCFPGGVHWVSVGKQDKSGLLMKLQNLCTRLDQDESFSQRLPLNIEEAKDRLRILMLRKHPRSLLILDDVWDSWVLKAFDSQCQILLTTRDKSVTDSVMGPKYVVPVESSLGKEKGLEILSLFVNMKKADLPEQAHSIIKECKGSPLVVSLIGALLRDFPNRWEYYLKQLQNKQFKRIRKSSSYDYEALDEAMSISVEMLREDIKDYYTDLSILQKDVKVPTKVLCILWDMETEEVEDILQEFVNKSLLFCDRNGKSFRYYLHDLQVDFLTEKNCSQLQDLHKKIITQFQRYHQPHTLSPDQEDCMYWYNFLAYHMASAKMHKELCALMFSLDWIKAKTELVGPAHLIHEFVEYRHILDEKDCAVSENFQEFLSLNGHLLGRQPFPNIVQLGLCEPETSEVYQQAKLQAKQEVDNGMLYLEWINKKNITNLSRLVV

Format: physicochemical, E. coli
Experimental: Preferably, solubility of the fragment is assessed in a lysate of a bacterial culture used to produce the fragment at a concentration of at least 1 milligram per liter of bacterial culture.
All constructs for protein expression were generated using a standard PCR-based cloning strategy, and the identity of individual clones was verified by double-stranded plasmid sequencing. A soluble Apaf-1 fragment (residues 1-591, sequence (SEQ ID NO: 1) shown in FIG. 1) was over-expressed in Escherichia coli strain BL21(DE3) using plasmid vector pET29 having the nucleotide sequence described by Jiang et al. (2000, J. Biol. Chem. 275:31199-31203) operatively ligated therein. The coding sequence included an additional sequence encoding eight amino acid residues at its carboxy-terminal end (i.e., linked to residue 591 in the translated protein). These residues (Leu-Glu-His6) included a nickel-binding hexa-histidine sequence used for metal affinity chromatographic purification of the expressed protein. Soluble Apaf-1 was purified from the cell lysate using a Ni-NTA (nitrilotriacetic acid-ligated nickel; Qiagen) chromatography column. Dithiothreitol (DTT) and ethylenediamine tetraacetic acid (EDTA) were added to the eluted fraction in final concentrations of 5 millimolar each. After incubation for 30 minutes on ice, the protein solution was applied to an anion-exchange column (Source-15Q, Pharmacia) for further purification.

Row | Molecule | Solubility | solubility and solution behavior (in words)
1 | B1 | ++++ | –
2 | B2 | – | largely insoluble
3 | B3 | ++ | soluble to significant extent
4 | B4 | ++ | without significant loss of activity or solubility
5 | B5 | – | without significant loss of activity or solubility
6 | B6 | +++ | good solubility and solution behavior
7 | B7 | ++ | good solubility and solution behavior
8 | B8 | +++ | good solubility and solution behavior
9 | B9 | – | good solubility and solution behavior
